Ends that are not written are not given here.
Experiments:
[1] = test system: RAGE ligand-dependent signalling; settings: Putranto et al., 2013; cited from earlier work
U-87MG cells = settings: Putranto et al., 2013; cited from earlier work
CCR6 = target: T1, CCR6 (Homo sapiens, UniProt P51684); test: Receptor-HIT BRET, β-arr2/Venus with RAGE/Rluc8 and CCR6; type: cell-based; settings: in the presence of CCR6
T1 construct: expressed in transfected cells; host or cells: HEK293FT, transient
Text: (§1) Bioluminescence Resonance Energy Transfer (BRET)
(§2) BRET is an established technology for studying protein-protein proximity in live cells, particularly involving GPCRs (Pfleger and Eidne, 2006). One protein of interest was linked to a bioluminescent donor enzyme, Rluc8, a variant of Renilla luciferase, and a second linked to an acceptor fluorophore, Venus, a variant of green fluorescent protein. If in close proximity (<10 nm), energy resulting from the rapid oxidation of a cell-permeable coelenterazine substrate by the donor can transfer to the acceptor, which in turn fluoresces at a longer characteristic wavelength.
(§3) Plasmids were transiently co-expressed in human embryonic kidney (HEK) 293FT cells and BRET measurements taken at 37° C. using a POLARstar Omega or LUMIstar plate reader (BMG Labtech, Mornington, Victoria, Australia) with 460-490 nm (‘donor emission’) and 520-550 nm (‘acceptor emission’) filters, or a VICTOR Light plate reader (Perkin Elmer, Glen Waverley, Victoria, Australia) with 400-475 nm (‘donor emission’) and 520-540 nm (‘acceptor emission’) filters, or a CLARIOstar plate reader (BMG Labtech, Mornington, Victoria, Australia) with 420-480 nm (‘donor emission’) and 520-620 nm (‘acceptor emission’) filters. […]
(§4) For BRET kinetic assays, the final pre-treatment reading is presented at the zero time point (time of ligand/vehicle addition). […]

CXCR5 and RAGE = target: T2, CXCR5 and RAGE (Homo sapiens, UniProt P32302+Q15109); test: Ligand-induced BRET, Rluc8-tagged GPCR and RAGE/Venus; type: cell-based; settings: mCherry-RAGE338-361 co-expressed, FIG. 21F
T2 construct: expressed in transfected cells; host or cells: HEK293FT
T2 sequence (P32302 whole entry): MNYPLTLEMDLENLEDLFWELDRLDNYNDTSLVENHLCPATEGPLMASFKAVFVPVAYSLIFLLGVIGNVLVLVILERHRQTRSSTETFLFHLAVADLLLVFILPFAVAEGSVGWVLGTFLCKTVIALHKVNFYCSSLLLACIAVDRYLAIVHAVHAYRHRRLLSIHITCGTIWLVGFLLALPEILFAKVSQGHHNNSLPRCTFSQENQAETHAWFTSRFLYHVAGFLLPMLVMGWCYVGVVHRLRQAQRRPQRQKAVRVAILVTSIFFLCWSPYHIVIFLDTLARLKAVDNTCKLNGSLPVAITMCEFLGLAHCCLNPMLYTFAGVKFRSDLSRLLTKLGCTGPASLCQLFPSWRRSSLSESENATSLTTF
T2 sequence (Q15109 23-404): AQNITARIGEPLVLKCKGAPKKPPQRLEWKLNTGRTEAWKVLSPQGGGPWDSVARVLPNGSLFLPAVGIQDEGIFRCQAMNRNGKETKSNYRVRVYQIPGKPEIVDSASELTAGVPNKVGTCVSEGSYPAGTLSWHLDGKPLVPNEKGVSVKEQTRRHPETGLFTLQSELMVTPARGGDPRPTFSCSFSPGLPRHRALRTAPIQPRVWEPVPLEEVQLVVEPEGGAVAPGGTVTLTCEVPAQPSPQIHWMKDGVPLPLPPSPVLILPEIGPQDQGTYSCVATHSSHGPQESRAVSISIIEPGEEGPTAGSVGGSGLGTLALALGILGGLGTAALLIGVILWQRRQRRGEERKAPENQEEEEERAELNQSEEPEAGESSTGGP

[2] = target: T3, bradykinin receptor 2 (B2R) and RAGE (Homo sapiens, UniProt P30411+Q15109); test: as above; type: cell-based; settings: mCherry-RAGE338-361 co-expressed, FIG. 21F
T3 construct: expressed in transfected cells; host or cells: HEK293FT
T3 sequence (P30411 whole entry): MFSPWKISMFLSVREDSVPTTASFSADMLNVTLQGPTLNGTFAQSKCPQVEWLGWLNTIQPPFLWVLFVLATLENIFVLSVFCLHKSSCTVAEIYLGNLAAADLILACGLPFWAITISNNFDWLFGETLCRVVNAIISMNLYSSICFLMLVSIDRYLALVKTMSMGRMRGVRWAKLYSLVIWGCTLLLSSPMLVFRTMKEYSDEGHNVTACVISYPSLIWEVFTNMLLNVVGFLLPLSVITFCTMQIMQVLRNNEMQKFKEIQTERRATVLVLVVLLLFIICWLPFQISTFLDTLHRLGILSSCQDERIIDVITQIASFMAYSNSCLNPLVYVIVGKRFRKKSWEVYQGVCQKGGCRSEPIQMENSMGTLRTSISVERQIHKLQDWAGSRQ
T3 sequence (Q15109 23-404): as the sequence (Q15109 23-404) above

[3] = target: T4, vasopressin receptor 2 (V2R) and RAGE (Homo sapiens, UniProt P30518+Q15109); test: as above; type: cell-based; settings: mCherry-RAGE338-361 co-expressed, FIG. 21F
T4 construct: expressed in transfected cells; host or cells: HEK293FT

CCR6 and RAGE = target: T5, CCR6 and RAGE (Homo sapiens, UniProt P51684+Q15109); test: as above; type: cell-based; settings: mCherry-RAGE338-361 co-expressed, FIG. 21F
T5 construct: expressed in transfected cells; host or cells: HEK293FT

[4] = target: T6, orexin receptor 2 and RAGE (Homo sapiens, UniProt O43614+Q15109); test: as above; type: cell-based; settings: mCherry-RAGE338-361 co-expressed, FIG. 21F
T6 construct: expressed in transfected cells; host or cells: HEK293FT

CCR7 and RAGE = target: T7, CCR7 and RAGE (Homo sapiens, UniProt P32248+Q15109); test: as above; type: cell-based; settings: mCherry-RAGE338-361 co-expressed, FIG. 21F
T7 construct: expressed in transfected cells; host or cells: HEK293FT
T7 sequence (P32248 25-378): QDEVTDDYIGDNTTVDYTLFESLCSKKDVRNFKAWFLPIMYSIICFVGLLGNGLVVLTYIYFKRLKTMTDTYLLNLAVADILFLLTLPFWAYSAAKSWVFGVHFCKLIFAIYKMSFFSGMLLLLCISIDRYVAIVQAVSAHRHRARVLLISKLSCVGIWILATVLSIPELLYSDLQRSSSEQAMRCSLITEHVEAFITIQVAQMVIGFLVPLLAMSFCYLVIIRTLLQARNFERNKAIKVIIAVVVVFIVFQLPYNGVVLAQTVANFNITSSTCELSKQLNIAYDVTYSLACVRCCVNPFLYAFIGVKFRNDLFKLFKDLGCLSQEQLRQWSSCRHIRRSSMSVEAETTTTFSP
T7 sequence (Q15109 23-404): as the sequence (Q15109 23-404) above

[5] = target: T8, vasopressin receptor 1A (V1aR) and RAGE (Homo sapiens, UniProt P37288+Q15109); test: as above; type: cell-based; settings: mCherry-RAGE338-361 co-expressed, FIG. 21F
T8 construct: expressed in transfected cells; host or cells: HEK293FT
T8 sequence (P37288 whole entry): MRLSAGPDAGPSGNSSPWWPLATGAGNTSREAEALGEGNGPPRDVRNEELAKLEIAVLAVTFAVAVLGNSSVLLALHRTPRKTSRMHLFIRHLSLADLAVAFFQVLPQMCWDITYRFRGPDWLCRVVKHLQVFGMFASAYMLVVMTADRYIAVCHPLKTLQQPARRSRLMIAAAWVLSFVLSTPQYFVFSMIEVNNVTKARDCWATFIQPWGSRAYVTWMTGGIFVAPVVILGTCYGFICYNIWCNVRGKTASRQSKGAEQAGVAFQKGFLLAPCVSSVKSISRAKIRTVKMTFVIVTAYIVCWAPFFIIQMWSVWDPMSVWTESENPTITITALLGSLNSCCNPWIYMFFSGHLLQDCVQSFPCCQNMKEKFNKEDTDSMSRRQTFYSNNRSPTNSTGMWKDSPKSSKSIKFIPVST
T8 sequence (Q15109 23-404): as the sequence (Q15109 23-404) above

[6] = target: T9, adrenergic α2B receptor and RAGE (Homo sapiens, UniProt P18089+Q15109); test: as above; type: cell-based; settings: mCherry-RAGE338-361 co-expressed, FIG. 21F
T9 construct: expressed in transfected cells; host or cells: HEK293FT

[7] = target: T10, vasopressin receptor 1B (V1bR) and RAGE (Homo sapiens, UniProt P47901+Q15109); test: as above; type: cell-based; settings: mCherry-RAGE338-361 co-expressed, FIG. 21F
T10 construct: expressed in transfected cells; host or cells: HEK293FT

CXCR4 and RAGE = target: T11, CXCR4 and RAGE (Homo sapiens, UniProt P61073+Q15109); test: as above; type: cell-based; settings: mCherry-RAGE338-361 co-expressed, FIG. 21F
T11 construct: expressed in transfected cells; host or cells: HEK293FT

AT1 = target: T12, AT1 (Homo sapiens, UniProt P30556); test: BRET between mCherry-RAGE338-361 and Nluc-AT1; type: cell-based; design: expressed in transfected cells; host or cells: HEK293FT, transient; settings: FIG. 21A
T12 sequence (P30556 1-359): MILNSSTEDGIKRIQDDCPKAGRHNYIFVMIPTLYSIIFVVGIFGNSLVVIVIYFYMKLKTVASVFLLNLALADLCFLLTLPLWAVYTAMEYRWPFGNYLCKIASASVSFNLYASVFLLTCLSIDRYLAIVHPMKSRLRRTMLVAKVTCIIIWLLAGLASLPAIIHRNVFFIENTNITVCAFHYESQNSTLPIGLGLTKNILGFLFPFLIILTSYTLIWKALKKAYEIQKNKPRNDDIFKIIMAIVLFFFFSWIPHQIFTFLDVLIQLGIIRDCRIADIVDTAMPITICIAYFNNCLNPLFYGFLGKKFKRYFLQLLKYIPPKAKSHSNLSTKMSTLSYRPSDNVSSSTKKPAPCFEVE

CCR9 and RAGE = target: T13, CCR9 and RAGE (Homo sapiens, UniProt P51686+Q15109); test: Ligand-induced BRET, Rluc8-tagged GPCR and RAGE/Venus; type: cell-based; settings: mCherry-RAGE338-361 co-expressed, FIG. 21F
T13 construct: expressed in transfected cells; host or cells: HEK293FT

[8] = test system: thyrotropin-releasing hormone receptor 1 (TRHR1) and RAGE; test: as above; type: cell-based; settings: mCherry-RAGE338-361 co-expressed, FIG. 21F
[9] = target: T14, sphingosine 1-phosphate receptor 1 (S1PR1) and RAGE (Homo sapiens, UniProt P21453+Q15109); test: as above; type: cell-based; settings: mCherry-RAGE338-361 co-expressed, FIG. 21F
T14 construct: expressed in transfected cells; host or cells: HEK293FT

AT1R and RAGE = target: T15, AT1R and RAGE (Homo sapiens, UniProt P30556+Q15109); test: BRET between AT1R/Rluc8 and RAGE/Venus in HEK293FT cells; type: cell-based
T15 construct: expressed in transfected cells; host or cells: HEK293FT
T15 sequence (Q15109 23-404, one chain of several): as the sequence (Q15109 23-404) above

[10] = target: T16, adenosine A1 receptor (ADORA1) and RAGE (Homo sapiens, UniProt P30542+Q15109); test: Ligand-induced BRET, Rluc8-tagged GPCR and RAGE/Venus; type: cell-based; settings: mCherry-RAGE338-361 co-expressed, FIG. 21F
T16 construct: expressed in transfected cells; host or cells: HEK293FT
T16 sequence (P30542 whole entry): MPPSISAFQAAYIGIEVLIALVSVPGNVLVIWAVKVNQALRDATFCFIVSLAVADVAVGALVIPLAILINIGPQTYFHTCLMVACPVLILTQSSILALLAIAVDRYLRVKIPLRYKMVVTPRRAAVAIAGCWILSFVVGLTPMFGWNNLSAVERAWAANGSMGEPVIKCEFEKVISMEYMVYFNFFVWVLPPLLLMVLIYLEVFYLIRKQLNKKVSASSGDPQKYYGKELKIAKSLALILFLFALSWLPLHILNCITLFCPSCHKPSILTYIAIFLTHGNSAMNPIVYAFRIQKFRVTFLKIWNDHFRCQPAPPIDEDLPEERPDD
T16 sequence (Q15109 23-404): as the sequence (Q15109 23-404) above

CCR4 and RAGE = target: T17, CCR4 and RAGE (Homo sapiens, UniProt P51679+Q15109); test: as above; type: cell-based; settings: mCherry-RAGE338-361 co-expressed, FIG. 21F
T17 construct: expressed in transfected cells; host or cells: HEK293FT

CCR2 and RAGE = target: T18, CCR2 and RAGE (Homo sapiens, UniProt P41597+Q15109); test: as above; type: cell-based; settings: mCherry-RAGE338-361 co-expressed, FIG. 21F
T18 construct: expressed in transfected cells; host or cells: HEK293FT

CCR1 and RAGE = target: T19, CCR1 and RAGE (Homo sapiens, UniProt P32246+Q15109); test: as above; type: cell-based; settings: mCherry-RAGE338-361 co-expressed, FIG. 21F
T19 construct: expressed in transfected cells; host or cells: HEK293FT

CXCR2 and RAGE = target: T20, CXCR2 and RAGE (Homo sapiens, UniProt P25025+Q15109); test: as above; type: cell-based; settings: mCherry-RAGE338-361 co-expressed, FIG. 21F
T20 construct: expressed in transfected cells; host or cells: HEK293FT
T20 sequence (P25025 whole entry): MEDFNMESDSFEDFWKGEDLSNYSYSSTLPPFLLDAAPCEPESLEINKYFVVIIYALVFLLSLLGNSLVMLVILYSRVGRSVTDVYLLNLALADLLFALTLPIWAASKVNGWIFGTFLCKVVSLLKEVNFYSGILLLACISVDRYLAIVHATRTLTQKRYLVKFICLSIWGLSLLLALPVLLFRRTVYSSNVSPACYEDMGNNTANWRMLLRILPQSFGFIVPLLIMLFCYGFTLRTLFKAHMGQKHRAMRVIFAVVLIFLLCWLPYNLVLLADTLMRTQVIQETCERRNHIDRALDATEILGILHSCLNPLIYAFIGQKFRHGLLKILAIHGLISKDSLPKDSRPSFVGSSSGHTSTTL
T20 sequence (Q15109 23-404): as the sequence (Q15109 23-404) above

CCR5 and RAGE = target: T21, CCR5 and RAGE (Homo sapiens, UniProt P51681+Q15109); test: as above; type: cell-based; settings: mCherry-RAGE338-361 co-expressed, FIG. 21F
T21 construct: expressed in transfected cells; host or cells: HEK293FT
T21 sequence (P51681 whole entry): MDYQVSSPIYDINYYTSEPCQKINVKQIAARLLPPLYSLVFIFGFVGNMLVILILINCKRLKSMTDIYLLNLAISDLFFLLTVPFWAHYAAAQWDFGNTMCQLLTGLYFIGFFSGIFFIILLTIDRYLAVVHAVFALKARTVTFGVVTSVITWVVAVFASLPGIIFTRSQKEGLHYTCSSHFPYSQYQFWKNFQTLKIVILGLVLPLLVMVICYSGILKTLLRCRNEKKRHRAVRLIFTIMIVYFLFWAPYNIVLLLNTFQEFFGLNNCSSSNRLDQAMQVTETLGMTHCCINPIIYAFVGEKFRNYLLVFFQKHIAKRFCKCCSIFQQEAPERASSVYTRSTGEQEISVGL
T21 sequence (Q15109 23-404): as the sequence (Q15109 23-404) above

[11] = target: T22, neuropeptide Y1 receptor (NPY1R) and RAGE (Homo sapiens, UniProt P25929+Q15109); test: as above; type: cell-based; settings: mCherry-RAGE338-361 co-expressed, FIG. 21F
T22 construct: expressed in transfected cells; host or cells: HEK293FT

CXCR1 = target: T23, CXCR1 (Homo sapiens, UniProt P25024); test: Receptor-HIT BRET, β-arr2/Venus with RAGE/Rluc8 and CXCR1; type: cell-based; settings: in the presence of CXCR1
T23 construct: expressed in transfected cells; host or cells: HEK293FT, transient
T23 sequence (P25024 whole entry, species assumed): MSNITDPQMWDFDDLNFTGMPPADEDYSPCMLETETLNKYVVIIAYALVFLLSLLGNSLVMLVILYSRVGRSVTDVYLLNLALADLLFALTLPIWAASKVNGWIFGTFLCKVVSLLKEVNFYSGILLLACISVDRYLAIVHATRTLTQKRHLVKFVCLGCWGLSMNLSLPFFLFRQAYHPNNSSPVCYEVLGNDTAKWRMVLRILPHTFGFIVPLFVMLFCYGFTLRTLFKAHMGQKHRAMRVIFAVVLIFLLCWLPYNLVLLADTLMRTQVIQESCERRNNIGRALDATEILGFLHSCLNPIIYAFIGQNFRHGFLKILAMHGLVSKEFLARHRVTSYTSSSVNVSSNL
T23 sequence (P32121 whole entry partner, species assumed): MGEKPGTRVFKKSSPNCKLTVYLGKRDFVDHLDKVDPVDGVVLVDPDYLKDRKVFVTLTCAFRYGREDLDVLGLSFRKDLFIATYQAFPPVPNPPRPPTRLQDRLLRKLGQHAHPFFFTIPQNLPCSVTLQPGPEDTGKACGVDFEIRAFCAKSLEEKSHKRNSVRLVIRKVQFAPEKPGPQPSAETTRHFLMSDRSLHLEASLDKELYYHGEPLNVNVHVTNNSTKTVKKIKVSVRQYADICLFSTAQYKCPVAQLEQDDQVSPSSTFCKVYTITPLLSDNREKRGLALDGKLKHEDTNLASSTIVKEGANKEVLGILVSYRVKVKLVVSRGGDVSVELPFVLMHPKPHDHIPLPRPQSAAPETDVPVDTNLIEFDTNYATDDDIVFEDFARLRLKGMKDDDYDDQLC
Text: as §1, §2, §3, §4

CXCR2 = target: T24, CXCR2 (Homo sapiens, UniProt P25025); test: Receptor-HIT BRET, β-arr2/Venus with RAGE/Rluc8 and CXCR2; type: cell-based; settings: in the presence of CXCR2
T24 construct: expressed in transfected cells; host or cells: HEK293FT, transient
T24 sequence (P25025 whole entry): as the sequence (P25025 whole entry) above
T24 sequence (P32121 whole entry partner): as the sequence (P32121 whole entry partner, species assumed) above
Text: as §1, §2, §3, §4

CCR10 = target: T25, CCR10 (Homo sapiens, UniProt P46092); test: Receptor-HIT BRET, β-arr2/Venus with RAGE/Rluc8 and CCR10; type: cell-based; settings: in the presence of CCR10
T25 construct: expressed in transfected cells; host or cells: HEK293FT, transient
T25 sequence (P46092 whole entry): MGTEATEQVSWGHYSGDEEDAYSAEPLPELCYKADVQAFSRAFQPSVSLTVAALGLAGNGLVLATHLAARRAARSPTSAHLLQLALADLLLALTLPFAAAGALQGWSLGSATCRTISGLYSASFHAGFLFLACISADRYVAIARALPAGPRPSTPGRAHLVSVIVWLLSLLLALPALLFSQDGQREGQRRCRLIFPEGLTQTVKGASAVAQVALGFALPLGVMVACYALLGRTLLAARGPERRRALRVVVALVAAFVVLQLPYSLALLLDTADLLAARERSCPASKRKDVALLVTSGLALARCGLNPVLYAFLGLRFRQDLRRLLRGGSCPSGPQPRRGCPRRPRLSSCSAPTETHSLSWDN
T25 sequence (P32121 whole entry partner): as the sequence (P32121 whole entry partner, species assumed) above
Text: as §1, §2, §3, §4

S391E-RAGE387-395: fragment of RAGE cytosolic tail of Putranto et al., 2013, mimicking the phosphorylated state of RAGE (ELNQEEEPE; cytosolic tail peptide; UniProt Q15109 387-395, looked up, variant S391E)
inhibition of particular aspects of RAGE ligand-dependent signalling (apoptosis, cell migration and invasion) [1]: inhibitor | growth of U-87MG cells (intracellular adenosine triphosphate content) (U-87MG cells): not significantly affected

CCL20: chemokine ligand used to activate CCR6
recruitment of β-arr2/Venus proximal to RAGE/Rluc8 (CCR6): recruitment

mCherry-RAGE338-361: the RAGE TMD with an extracellular juxta-membrane fragment linked to mCherry (LGTLALALGILGGLGTAALLIGVI; also: linked to mCherry)
inhibition of the change in the ligand-induced BRET signal between the Rluc8-tagged GPCR and RAGE/Venus (CXCR5 and RAGE): small yet discernible inhibition | inhibition of the change in the ligand-induced BRET signal between the Rluc8-tagged GPCR and RAGE/Venus [2]: particularly clear inhibition | inhibition of the change in the ligand-induced BRET signal between the Rluc8-tagged GPCR and RAGE/Venus [3]: particularly clear inhibition | inhibition of the change in the ligand-induced BRET signal between the Rluc8-tagged GPCR and RAGE/Venus (CCR6 and RAGE): particularly clear inhibition | inhibition of the change in the ligand-induced BRET signal between the Rluc8-tagged GPCR and RAGE/Venus [4]: particularly clear inhibition | inhibition of the change in the ligand-induced BRET signal between the Rluc8-tagged GPCR and RAGE/Venus (CCR7 and RAGE): small yet discernible inhibition | inhibition of the change in the ligand-induced BRET signal between the Rluc8-tagged GPCR and RAGE/Venus [5]: particularly clear inhibition | inhibition of the change in the ligand-induced BRET signal between the Rluc8-tagged GPCR and RAGE/Venus [6]: particularly clear inhibition | inhibition of the change in the ligand-induced BRET signal between the Rluc8-tagged GPCR and RAGE/Venus [7]: particularly clear inhibition | inhibition of the change in the ligand-induced BRET signal between the Rluc8-tagged GPCR and RAGE/Venus (CXCR4 and RAGE): particularly clear inhibition | BRET signal with extracellularly luciferase-tagged AT1 receptor (Nluc-AT1) (AT1): BRET signal is observed | inhibition of the change in the ligand-induced BRET signal between the Rluc8-tagged GPCR and RAGE/Venus (CCR9 and RAGE): particularly clear inhibition | inhibition of the change in the ligand-induced BRET signal between the Rluc8-tagged GPCR and RAGE/Venus [8]: particularly clear inhibition | inhibition of the change in the ligand-induced BRET signal between the Rluc8-tagged GPCR and RAGE/Venus [9]: particularly clear inhibition | inhibition of the change in the ligand-induced BRET signal between the Rluc8-tagged GPCR and RAGE/Venus (AT1R and RAGE; angiotensin receptor AT1 (AT1R), mCherry-RAGE338-361 co-expressed, FIG. 21F): particularly clear inhibition | BRET between full length RAGE and AT1 (saturation and kinetic assays) (AT1R and RAGE; overexpression of mCherry-RAGE338-361, FIG. 21B, 21C): modulates BRET between full length RAGE and AT1 in a dose dependent fashion | inhibition of the change in the ligand-induced BRET signal between the Rluc8-tagged GPCR and RAGE/Venus [10]: small yet discernible inhibition | inhibition of the change in the ligand-induced BRET signal between the Rluc8-tagged GPCR and RAGE/Venus (CCR4 and RAGE): particularly clear inhibition | inhibition of the change in the ligand-induced BRET signal between the Rluc8-tagged GPCR and RAGE/Venus (CCR2 and RAGE): particularly clear inhibition | inhibition of the change in the ligand-induced BRET signal between the Rluc8-tagged GPCR and RAGE/Venus (CCR1 and RAGE): particularly clear inhibition | inhibition of the change in the ligand-induced BRET signal between the Rluc8-tagged GPCR and RAGE/Venus (CXCR2 and RAGE): particularly clear inhibition | inhibition of the change in the ligand-induced BRET signal between the Rluc8-tagged GPCR and RAGE/Venus (CCR5 and RAGE): particularly clear inhibition | inhibition of the change in the ligand-induced BRET signal between the Rluc8-tagged GPCR and RAGE/Venus [11]: particularly clear inhibition

CXCL8: chemokine ligand used to activate CXCR1 and CXCR2
recruitment of β-arr2/Venus proximal to RAGE/Rluc8 (CXCR1): Weak | recruitment of β-arr2/Venus proximal to RAGE/Rluc8 (CXCR2): recruitment

B1: CCL27: chemokine ligand used to activate CCR10 (protein)
chain: FLLPPSTACCTQLYRKPLSDKLLRKVIQVELQEADGDCHLQAFVLHLAQRSICIHPQNPSLSQWFEHQERKLHGTLPKLNFGMLRKMG
recruitment of β-arr2/Venus proximal to RAGE/Rluc8 (CCR10): Lack of

— patent US12060408B2, “Screening assays, modulators and modulation of activation of Receptor for Advanced Glycation End-products (RAGE)” (Monash University, priority 2017, dated 2024)
